The source of these data is PMC3527552.

What all share (conditions): glycan lost; control: wild type
The nature of series [1]: total cell lysate anti-HA Western blot.
A short description of series [2]: cell surface biotinylation, anti-HA Western blot.
Series [3] can be described thus: confocal immunofluorescence, colocalisation with calnexin.
Series [4] in a line: 0.1 μM E-3-S uptake, 2 min, HEK293.

B1: OATP1B1: N134/503/516Q (protein)
parent chain: MDQNQHLNKTAEAQPSENKKTRYCNGLKMFLAALSLSFIAKTLGAIIMKSSIIHIERRFEISSSLVGFIDGSFEIGNLLVIVFVSYFGSKLHRPKLIGIGCFIMGIGGVLTALPHFFMGYYRYSKETNINSSENSTSTLSTCLINQILSLNRASPEIVGKGCLKESGSYMWIYVFMGNMLRGIGETPIVPLGLSYIDDFAKEGHSSLYLGILNAIAMIGPIIGFTLGSLFSKMYVDIGYVDLSTIRITPTDSRWVGAWWLNFLVSGLFSIISSIPFFFLPQTPNKPQKERKASLSLHVLETNDEKDQTANLTNQGKNITKNVTGFFQSFKSILTNPLYVMFVLLTLLQVSSYIGAFTYVFKYVEQQYGQPSSKANILLGVITIPIFASGMFLGGYIIKKFKLNTVGIAKFSCFTAVMSLSFYLLYFFILCENKSVAGLTMTYDGNNPVTSHRDVPLSYCNSDCNCDESQWEPVCGNNGITYISPCLAGCKSSSGNKKPIVFYNCSCLEVTGLQNRNYSAHLGECPRDDACTRKFYFFVAIQVLNLFFSALGGTSHVMLIVKIVQPELKSLALGFHSMVIRALGGILAPIYFGALIDTTCIKWSTNNCGTRGSCRTYNSTSFSRVYLGLSSMLRVSSLVLYIILIYAMKKKYQEKDINASENGSVMDEANLESLNKNKHFVPSAGADSETHC
As for B1, the expression_or_secretion entry in series [1] was “decreases”. In addition, in series [2], the “expression_or_secretion, percent_of_wt” value was “decreases”. In addition, the localisation_or_trafficking result in series [3] is reported as “changes”.

B2: OATP1B1: N134/516Q (protein)
parent chain: MDQNQHLNKTAEAQPSENKKTRYCNGLKMFLAALSLSFIAKTLGAIIMKSSIIHIERRFEISSSLVGFIDGSFEIGNLLVIVFVSYFGSKLHRPKLIGIGCFIMGIGGVLTALPHFFMGYYRYSKETNINSSENSTSTLSTCLINQILSLNRASPEIVGKGCLKESGSYMWIYVFMGNMLRGIGETPIVPLGLSYIDDFAKEGHSSLYLGILNAIAMIGPIIGFTLGSLFSKMYVDIGYVDLSTIRITPTDSRWVGAWWLNFLVSGLFSIISSIPFFFLPQTPNKPQKERKASLSLHVLETNDEKDQTANLTNQGKNITKNVTGFFQSFKSILTNPLYVMFVLLTLLQVSSYIGAFTYVFKYVEQQYGQPSSKANILLGVITIPIFASGMFLGGYIIKKFKLNTVGIAKFSCFTAVMSLSFYLLYFFILCENKSVAGLTMTYDGNNPVTSHRDVPLSYCNSDCNCDESQWEPVCGNNGITYISPCLAGCKSSSGNKKPIVFYNCSCLEVTGLQNRNYSAHLGECPRDDACTRKFYFFVAIQVLNLFFSALGGTSHVMLIVKIVQPELKSLALGFHSMVIRALGGILAPIYFGALIDTTCIKWSTNNCGTRGSCRTYNSTSFSRVYLGLSSMLRVSSLVLYIILIYAMKKKYQEKDINASENGSVMDEANLESLNKNKHFVPSAGADSETHC
Take B2: the “other: transport activity” value in series [4] is on record as “no change”. Besides, in series [2], the “expression_or_secretion, percent_of_wt” value was “no change”.

B3: OATP1B1: N134/617Q (protein)
parent chain: MDQNQHLNKTAEAQPSENKKTRYCNGLKMFLAALSLSFIAKTLGAIIMKSSIIHIERRFEISSSLVGFIDGSFEIGNLLVIVFVSYFGSKLHRPKLIGIGCFIMGIGGVLTALPHFFMGYYRYSKETNINSSENSTSTLSTCLINQILSLNRASPEIVGKGCLKESGSYMWIYVFMGNMLRGIGETPIVPLGLSYIDDFAKEGHSSLYLGILNAIAMIGPIIGFTLGSLFSKMYVDIGYVDLSTIRITPTDSRWVGAWWLNFLVSGLFSIISSIPFFFLPQTPNKPQKERKASLSLHVLETNDEKDQTANLTNQGKNITKNVTGFFQSFKSILTNPLYVMFVLLTLLQVSSYIGAFTYVFKYVEQQYGQPSSKANILLGVITIPIFASGMFLGGYIIKKFKLNTVGIAKFSCFTAVMSLSFYLLYFFILCENKSVAGLTMTYDGNNPVTSHRDVPLSYCNSDCNCDESQWEPVCGNNGITYISPCLAGCKSSSGNKKPIVFYNCSCLEVTGLQNRNYSAHLGECPRDDACTRKFYFFVAIQVLNLFFSALGGTSHVMLIVKIVQPELKSLALGFHSMVIRALGGILAPIYFGALIDTTCIKWSTNNCGTRGSCRTYNSTSFSRVYLGLSSMLRVSSLVLYIILIYAMKKKYQEKDINASENGSVMDEANLESLNKNKHFVPSAGADSETHC
For B3, the “other: transport activity” value in series [4] is recorded as “no change”. Also, the “expression_or_secretion, percent_of_wt” value in series [2] is reported as “no change”.

B4: OATP1B1: N134Q (protein)
parent chain: MDQNQHLNKTAEAQPSENKKTRYCNGLKMFLAALSLSFIAKTLGAIIMKSSIIHIERRFEISSSLVGFIDGSFEIGNLLVIVFVSYFGSKLHRPKLIGIGCFIMGIGGVLTALPHFFMGYYRYSKETNINSSENSTSTLSTCLINQILSLNRASPEIVGKGCLKESGSYMWIYVFMGNMLRGIGETPIVPLGLSYIDDFAKEGHSSLYLGILNAIAMIGPIIGFTLGSLFSKMYVDIGYVDLSTIRITPTDSRWVGAWWLNFLVSGLFSIISSIPFFFLPQTPNKPQKERKASLSLHVLETNDEKDQTANLTNQGKNITKNVTGFFQSFKSILTNPLYVMFVLLTLLQVSSYIGAFTYVFKYVEQQYGQPSSKANILLGVITIPIFASGMFLGGYIIKKFKLNTVGIAKFSCFTAVMSLSFYLLYFFILCENKSVAGLTMTYDGNNPVTSHRDVPLSYCNSDCNCDESQWEPVCGNNGITYISPCLAGCKSSSGNKKPIVFYNCSCLEVTGLQNRNYSAHLGECPRDDACTRKFYFFVAIQVLNLFFSALGGTSHVMLIVKIVQPELKSLALGFHSMVIRALGGILAPIYFGALIDTTCIKWSTNNCGTRGSCRTYNSTSFSRVYLGLSSMLRVSSLVLYIILIYAMKKKYQEKDINASENGSVMDEANLESLNKNKHFVPSAGADSETHC
In the case of B4, the “other: transport activity” value in series [4] was “no change”. Also, the “expression_or_secretion, percent_of_wt” value in series [2] is on record as “no change”.

B5: OATP1B1: N516Q (protein)
parent chain: MDQNQHLNKTAEAQPSENKKTRYCNGLKMFLAALSLSFIAKTLGAIIMKSSIIHIERRFEISSSLVGFIDGSFEIGNLLVIVFVSYFGSKLHRPKLIGIGCFIMGIGGVLTALPHFFMGYYRYSKETNINSSENSTSTLSTCLINQILSLNRASPEIVGKGCLKESGSYMWIYVFMGNMLRGIGETPIVPLGLSYIDDFAKEGHSSLYLGILNAIAMIGPIIGFTLGSLFSKMYVDIGYVDLSTIRITPTDSRWVGAWWLNFLVSGLFSIISSIPFFFLPQTPNKPQKERKASLSLHVLETNDEKDQTANLTNQGKNITKNVTGFFQSFKSILTNPLYVMFVLLTLLQVSSYIGAFTYVFKYVEQQYGQPSSKANILLGVITIPIFASGMFLGGYIIKKFKLNTVGIAKFSCFTAVMSLSFYLLYFFILCENKSVAGLTMTYDGNNPVTSHRDVPLSYCNSDCNCDESQWEPVCGNNGITYISPCLAGCKSSSGNKKPIVFYNCSCLEVTGLQNRNYSAHLGECPRDDACTRKFYFFVAIQVLNLFFSALGGTSHVMLIVKIVQPELKSLALGFHSMVIRALGGILAPIYFGALIDTTCIKWSTNNCGTRGSCRTYNSTSFSRVYLGLSSMLRVSSLVLYIILIYAMKKKYQEKDINASENGSVMDEANLESLNKNKHFVPSAGADSETHC
Turning to B5, the “other: transport activity” value in series [4] is reported as “no change”. Also, in series [2], the “expression_or_secretion, percent_of_wt” value was “no change”.

B6: OATP1B1: N134/503Q (protein)
parent chain: MDQNQHLNKTAEAQPSENKKTRYCNGLKMFLAALSLSFIAKTLGAIIMKSSIIHIERRFEISSSLVGFIDGSFEIGNLLVIVFVSYFGSKLHRPKLIGIGCFIMGIGGVLTALPHFFMGYYRYSKETNINSSENSTSTLSTCLINQILSLNRASPEIVGKGCLKESGSYMWIYVFMGNMLRGIGETPIVPLGLSYIDDFAKEGHSSLYLGILNAIAMIGPIIGFTLGSLFSKMYVDIGYVDLSTIRITPTDSRWVGAWWLNFLVSGLFSIISSIPFFFLPQTPNKPQKERKASLSLHVLETNDEKDQTANLTNQGKNITKNVTGFFQSFKSILTNPLYVMFVLLTLLQVSSYIGAFTYVFKYVEQQYGQPSSKANILLGVITIPIFASGMFLGGYIIKKFKLNTVGIAKFSCFTAVMSLSFYLLYFFILCENKSVAGLTMTYDGNNPVTSHRDVPLSYCNSDCNCDESQWEPVCGNNGITYISPCLAGCKSSSGNKKPIVFYNCSCLEVTGLQNRNYSAHLGECPRDDACTRKFYFFVAIQVLNLFFSALGGTSHVMLIVKIVQPELKSLALGFHSMVIRALGGILAPIYFGALIDTTCIKWSTNNCGTRGSCRTYNSTSFSRVYLGLSSMLRVSSLVLYIILIYAMKKKYQEKDINASENGSVMDEANLESLNKNKHFVPSAGADSETHC
Regarding B6, the “other: transport activity” value in series [4] is on record as “no change”. Moreover, the “expression_or_secretion, percent_of_wt” value in series [2] is “no change”.

B7: OATP1B1: N503Q (protein)
parent chain: MDQNQHLNKTAEAQPSENKKTRYCNGLKMFLAALSLSFIAKTLGAIIMKSSIIHIERRFEISSSLVGFIDGSFEIGNLLVIVFVSYFGSKLHRPKLIGIGCFIMGIGGVLTALPHFFMGYYRYSKETNINSSENSTSTLSTCLINQILSLNRASPEIVGKGCLKESGSYMWIYVFMGNMLRGIGETPIVPLGLSYIDDFAKEGHSSLYLGILNAIAMIGPIIGFTLGSLFSKMYVDIGYVDLSTIRITPTDSRWVGAWWLNFLVSGLFSIISSIPFFFLPQTPNKPQKERKASLSLHVLETNDEKDQTANLTNQGKNITKNVTGFFQSFKSILTNPLYVMFVLLTLLQVSSYIGAFTYVFKYVEQQYGQPSSKANILLGVITIPIFASGMFLGGYIIKKFKLNTVGIAKFSCFTAVMSLSFYLLYFFILCENKSVAGLTMTYDGNNPVTSHRDVPLSYCNSDCNCDESQWEPVCGNNGITYISPCLAGCKSSSGNKKPIVFYNCSCLEVTGLQNRNYSAHLGECPRDDACTRKFYFFVAIQVLNLFFSALGGTSHVMLIVKIVQPELKSLALGFHSMVIRALGGILAPIYFGALIDTTCIKWSTNNCGTRGSCRTYNSTSFSRVYLGLSSMLRVSSLVLYIILIYAMKKKYQEKDINASENGSVMDEANLESLNKNKHFVPSAGADSETHC
In the case of B7, in series [4], the “other: transport activity” value is recorded as “no change”. Further, in series [2], the “expression_or_secretion, percent_of_wt” value is “no change”.

B8: OATP1B1: N134/432Q (protein)
parent chain: MDQNQHLNKTAEAQPSENKKTRYCNGLKMFLAALSLSFIAKTLGAIIMKSSIIHIERRFEISSSLVGFIDGSFEIGNLLVIVFVSYFGSKLHRPKLIGIGCFIMGIGGVLTALPHFFMGYYRYSKETNINSSENSTSTLSTCLINQILSLNRASPEIVGKGCLKESGSYMWIYVFMGNMLRGIGETPIVPLGLSYIDDFAKEGHSSLYLGILNAIAMIGPIIGFTLGSLFSKMYVDIGYVDLSTIRITPTDSRWVGAWWLNFLVSGLFSIISSIPFFFLPQTPNKPQKERKASLSLHVLETNDEKDQTANLTNQGKNITKNVTGFFQSFKSILTNPLYVMFVLLTLLQVSSYIGAFTYVFKYVEQQYGQPSSKANILLGVITIPIFASGMFLGGYIIKKFKLNTVGIAKFSCFTAVMSLSFYLLYFFILCENKSVAGLTMTYDGNNPVTSHRDVPLSYCNSDCNCDESQWEPVCGNNGITYISPCLAGCKSSSGNKKPIVFYNCSCLEVTGLQNRNYSAHLGECPRDDACTRKFYFFVAIQVLNLFFSALGGTSHVMLIVKIVQPELKSLALGFHSMVIRALGGILAPIYFGALIDTTCIKWSTNNCGTRGSCRTYNSTSFSRVYLGLSSMLRVSSLVLYIILIYAMKKKYQEKDINASENGSVMDEANLESLNKNKHFVPSAGADSETHC
Turning to B8, in series [4], the “other: transport activity” value is listed as “no change”. The “expression_or_secretion, percent_of_wt” value in series [2] is reported as “no change”.
